Results on one molecule are retold here after patent US20030064071A1 (NEW YORK UNIVERSITY, published 2003).

In the test the target is T1, M-tropic HIV-1MN envelope glycoprotein gp120 (HIV-1 (strain MN), UniProt P05877 32-513).
T1 construct: domain: gp120; also called HIV-1 gp120; HIV-1MN gp120
The test is described as follows: fluorescent bead adhesion assay, flow cytometry. In general terms: Flow cytometry measures light scatter and fluorescence of single cells or particles in a stream.

B1: DC-SIGN (receptor)
chain: MSDSKEPRLQQLGLLEEEQLRGLGFRQTRGYKSLAGCLGHGPLVLQLLSFTLLAGLLVQVSKVPSSISQEQSRQDAIYQNLTQLKAAVGELSEKSKLQEIYQELTQLKAAVGELPEKSKLQEIYQELTRLKAAVGELPEKSKLQEIYQELTWLKAAVGELPEKSKMQEIYQELTRLKAAVGELPEKSKQQEIYQELTRLKAAVGELPEKSKQQEIYQELTRLKAAVGELPEKSKQQEIYQELTQLKAAVERLCHPCPWEWTFFQGNCYFMSNSQRNWHDSITACKEVGAQLVVIKSAEEQNFLQLQSSRSNRFTWMGLSDLNQEGTWQWVDGSPLLPSFKQYWNRGEPNNVGEEDCAEFSGNGWNDDKCNLAKFWICKKSAASCSRDEEQFLSPAPATPNPPPA
notes: also called THP-DC-SIGN (THP-1 transfectant)
As for B1, the binding result was “binds”.
